Reference: publication PMC9893541 (BMC Biology, 2023)

Legend:
Test in all cases: SPR; BIAcore T-200; chimeric Fc-type 1 receptor coupled to a Series S Protein A chip; ligands 6.25-0.049 nM flowed at 50 uL/min, 300 s association, 1000 s dissociation; 20 mM HEPES pH 7.4, 350 mM NaCl, 0.005 % P-20, 0.5 mg/mL BSA, 3.4 mM EDTA; kinetic 1:1 fit (also a bivalent fit); apparent KD = kd/ka; average of N=2
Details in all cases: both partners purified
BMP2/GDF5 heterodimer = molecular target: T1, BMP2/GDF5 heterodimer (human, UniProt P12643 283-396; P43026 382-501)
T1 construct: bone morphogenetic protein 2 (BMP2), mature domain; Growth and Differentiation Factor 5 (GDF5), mature domain; Made by people from two natural mature chains; disulfide-linked dimer; also called GDF5/BMP2; WT heterodimer; copies: 1 + 1
T1 sequence (P12643 283-396, one chain of several): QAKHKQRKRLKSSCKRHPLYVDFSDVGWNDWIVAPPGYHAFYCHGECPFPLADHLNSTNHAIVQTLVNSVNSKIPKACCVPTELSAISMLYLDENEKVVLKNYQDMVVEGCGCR

BMP2 homodimer = molecular target: T2, BMP2 homodimer (human, UniProt P12643 283-396)
T2 construct: bone morphogenetic protein 2 (BMP2), mature domain; cDNA received from Hongwen Ma; Dimer stabilised by an inter-chain disulfide bond; Cloned in pET21a; no tag is mentioned; also called homodimeric BMP2; bone morphogenetic protein 2
T2 sequence (P12643 283-396): as the sequence (P12643 283-396, one chain of several) above

BMP4/GDF5 heterodimer = molecular target: T3, BMP4/GDF5 heterodimer (human, UniProt P12644 293-408; P43026 382-501)
T3 construct: additional Met residue on the N-terminus of the BMP4 construct; bone morphogenetic protein 4 (BMP4), mature domain; Growth and Differentiation Factor 5 (GDF5), mature domain; Made by people from two natural mature chains; disulfide-linked dimer; also called GDF5/BMP4; copies: 1 + 1
T3 sequence 1: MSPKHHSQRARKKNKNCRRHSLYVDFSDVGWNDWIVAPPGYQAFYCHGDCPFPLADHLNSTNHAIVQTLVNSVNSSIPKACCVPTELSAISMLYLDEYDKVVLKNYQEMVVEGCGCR
T3 sequence 2: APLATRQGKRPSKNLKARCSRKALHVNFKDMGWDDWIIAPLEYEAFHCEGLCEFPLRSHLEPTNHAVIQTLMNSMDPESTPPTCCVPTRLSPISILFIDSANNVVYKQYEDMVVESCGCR

BMP4 homodimer = molecular target: T4, BMP4 homodimer (human, UniProt P12644 293-408)
T4 construct: additional Met residue on the N-terminus of the BMP4 construct; bone morphogenetic protein 4 (BMP4), mature domain; Dimer stabilised by an inter-chain disulfide bond; also called homodimeric BMP4
T4 sequence: T3 sequence 1

GDF5 homodimer = molecular target: T5, GDF5 homodimer (human, UniProt P43026 382-501)
T5 construct: Growth and Differentiation Factor 5 (GDF5), mature domain; Dimer stabilised by an inter-chain disulfide bond; also called homodimeric GDF5; Growth and Differentiation Factor 5
T5 sequence (looked up): T3 sequence 2

- Kd (BMP2/GDF5 heterodimer): 26 pM
- Kd (BMP2 homodimer): 102 pM
- Kd (BMP4/GDF5 heterodimer): 46 pM
- Kd (BMP4 homodimer): 113 pM
- Kd (GDF5 homodimer): 57 pM
B1: FC-(Alk6)2 (Fc fusion, UniProt O00238 14-126, looked up)
chain: KKEDGESTAPTPRPKVLRCKCHHHCPEDSVNNICSTDGYCFTMIEEDDSGLPVVTSGCLGLEGSDFQCRDTPIPHQRRSIECCTERNECNKDLHPTLPPLKNRDFVDGPIHHR
notes: type 1 receptor Alk6 (BMPR1B) in a recombinant chimeric Fc-receptor; also called chimeric FC-receptor; source: bought: R&D (Cat# 505-PR-100)
